Measurements: the nanobody polyreactivity screen of Harvey et al. (2022)

Test: yeast display, Sf9 membrane polyspecificity reagent, FACS + sequencing; frameworks hold sequencing errors
How it was run: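 In a synthetic yeast display library (Saccharomyces cerevisiae BJ5465), nanobody expression was induced with galactose for 36–48 hours. FACS gates were set low and high (top ~1%) using anti-HA fluorescence for expression and streptavidin fluorescence for binding of the Sf9 membrane reagent. Each polyreactivity label is drawn from the gate of origin.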

Sequence | polyreactivity (PSR sort gate)
QVQLVESGGGLVQAGGSLRLSCAASGSTFTHYAMGWYRQAPGKERELVAAISWGGGTTRYADSVKGRFTISRDNAKNTVYLQMNSLKPEDTAVYYCAAYRTHGPPRAIRFDYWGQGTQVTVSS | high polyreactivity
QVQLVESGGGLVQAGGSLRLSCAASGSTFTIYAMGGYRQAPGKERELVAAITRGGSTNYADSVKGRFTISRDNAKNTVYLQMNSLKPEDTAVYYCNKVVPGYSAAKYDYWGQGTQVTVSS | high polyreactivity
QVQLVESGGGLVQAGGSLRLSCAASGSTFTIYAMGWYRQAPGKERELVAAITFSGDRTYYADSVKGRFTISRDNAKNTVFLQMNSLKPEDTAVYYCAAKSSTKQRKYYWGQGTQVTVSS | high polyreactivity
QVQLVESGGGLVQAGGSLRLSCAASGSTFTKNAMGWYRQAPGKERELVAAISFSGGSTYYADSVKGRFTISRDNAKNTVYLQMNSLKPEHTAVYYCAADPHRALPRFDYWGQGTQVTVSS | low polyreactivity
QVQLVESGGGLVQAGGSLRLSCAASGSTFTKNAMGWYRQAPGKERELVVVINRSGTSTYYADSVKGRFTISRDNAKNTVYLQMNSLKPEDTAVYYCATKYARTAGGGYYWGQGTQVTVSS | high polyreactivity
QVQLVESGGGLVQAGGSLRLSCAASGSTFTKYAMGWYRQAPGKERELVAAISRSGGGTYYADSVKGRFTISRDNAKNTVYLQMNILKPEDTAVYYCNAALFRGAQFDYWGQGTQVTVSS | high polyreactivity
QVQLVESGGGLVQAGGSLRLSCAASGSTFTLNAMGWYRQAPGKERELVAAITTSGGSTYYADSVKGRFTISRDNAKNTVYLQMNSLKPEDTAVYYCNADGPWREVERPFRKEGNYWGQGTQVTVSS | low polyreactivity
QVQLVESGGGLVQAGGSLRLSCAASGSTFTNNGMGWYRQAPGKERELVATISWDGDSTYYADSVKGRFTISRDNAKNTVYLQMNSLKPEDTAVYYCAADEWGSDSALNFEYWGQGTQVTVSS | low polyreactivity
QVQLVESGGGLVQAGGSLRLSCAASGSTFTNYAMGWYRQAPGKERELLAAINNDRTNYADSVKGRFTISRDNAMNTVYLQMNSLKPEDTAVYYCAARLGGRRRFGYWGQGTQVTVSS | high polyreactivity
QVQLVESGGGLVQAGGSLRLSCAASGSTFTPNAMGWYRQAPGKERELVAAIRGLNGRTYYADSVKGRFTISRDNAKNTVYLQMHSLKPEDTAVYYCAAGGYSYYFAWHDYWGQGTQVTVSS | low polyreactivity
QVQLVESGGGLVQAGGSLRLSCAASGSTFTPYAMGWYRQAPAKERELVAAITSGGPTNYADSVKGRFTISRDNAKNTVYLQMNSLKPEDTAVYYCNAEYLYWWEIYDYWGQGNQVTVSS | high polyreactivity
QVQLVESGGGLVQAGGSLRLSCAASGSTFTPYAMGWYRQAPGKEREFVARISWTGGSTYYADSVKGRFTISRDIAKNTVYLQMNSLKPEDTAVYYCNADRYRWYDHGYYYWGQGTQVTVSS | high polyreactivity
QVQLVESGGGLVQAGGSLRLSCAASGSTFTPYVMGWYRQAPGKERELVAAIRRRGGSTYYADSVKGRFTISRDNAKNSVYLQMNSLKPEDTAVYYCATDWSWLSLKFDYWGQGTQVTVSS | high polyreactivity
QVQLVESGGGLVQAGGSLRLSCAASGSTFTQYVMGWYRQAPGKERDLVAAISDSGSTYYADSVKGRFTISRDNAKNTVYLQMNRLKPEDTAVYFCNADDVDFYYGYGYLDYDYWGQGTQVTVSS | low polyreactivity
QVQLVESGGGLVQAGGSLRLSCAASGSTFTRNAMGWYREAPGTERELVAAISFSGGSTYYADSVKGRFTISRDNAKNTVYLQMNSLKPEDTAVYYCATKVEYRYYYWGQGTQVTVSS | high polyreactivity
QVQLVESGGGLVQAGGSLRLSCAASGSTFTRNAMGWYRQAPGKERELVAAITSSGGSTYYADSVKGRFTISRDNAKITVYLQMNSLKPEDTAVYYCAAYPHRPRDRELDHWGQGTQVTVSS | low polyreactivity
QVQLVESGGGLVQAGGSLRLSCAASGSTFTRNAMGWYRQAPGKERELVAAITSSGGSTYYADSVKGRFTISRDNAKNTVYLQMNSLKPEDTAVYYCNADFRTYYDSEYDYWGQGTQVTVSS | low polyreactivity
QVQLVESGGGLVQAGGSLRLSCAASGSTFTRYAMGWNRQAPGKARELVAAINWSGTSTYYADSVKGRFTISRDNAMNTVYLQMNSLKPEATAVYYSNAYTVRSYRFDYWGQGTQVTVSS | high polyreactivity
QVQLVESGGGLVQAGGSLRLSCAASGSTFTRYAMGWYRQAPGKERELVAAISGGGSTNYADSVKGRFTISRDNANNTVYLQKNSLKPEVTAVYFCAARVRTTGYSQMYYWGQGTQVTVSS | low polyreactivity
QVQLVESGGGLVQAGGSLRLSCAASGSTFTRYAMGWYRQAPGKERELVAAISGGGSTNYADSVKGRFTISRDNSKNTVYLQMNSLKPEDTAVYYCAARVRTTGYSQMYYWGQGTQVTVSS | low polyreactivity
QVQLVESGGGLVQAGGSLRLSCAASGSTFTRYGMGRYRQAPGKERELVAAITTSGSSTYYADSVKGRFTISRDNAKNTVYLQMNSLKPEDTAVYYCAADWSSWGFDYWGQGTQVTVSS | low polyreactivity
QVQLVESGGGLVQAGGSLRLSCAASGSTFTSNTMGWCRQAPGKERELVAGITGAGSTNYADSVKGRFTISRDNEKNTVYLQMNSLKPEDTAVYYCAASVRWPRVSQRARYGYYYWGQGTQVAVSS | high polyreactivity

Sequence | polyreactivity (PSR sort gate)
QVQLVESGGGLVQAGGSLRLSCAASGSTFTSYAMGWYRQAPGKERELVAGITSRGTSTYYADSVKGRFTISRDHAKNTVYLQMNSLKPEYTAVYYCAAVYLSYGPGSEDPLGYWGQGTQVTVSS | high polyreactivity
QVQLVESGGGLVQAGGSLRLSCAASGSTFTSYAMGWYRQAPGKERELVASIRSTSGRTYYADSVKGRFTISRDNAKNTVYLQMNSLKPEDTAVYYCAAATYGTWWTYADNPYDYWGQGTQVTVSS | high polyreactivity
QVQLVESGGGLVQAGGSLRLSCAASGSTFTTNAMGLYRQEPGKERELVAAITSTGSTYADSVKGRFTISRDNAMNTVYLQMNSLKPEDTAVYYCAADTQWTTPYDYWGQGTQVTVSS | low polyreactivity
QVQLVESGGGLVQAGGSLRLSCAASGSTFTTYAMRWYRQAPGKERELLAAITRGGGRTYYSDSVKGRFTISRDYAKNTVYLLMNSLKPEDTAVYYCNAGRSNSPCGRPYDYWGQGTQVTVSS | high polyreactivity
QVQLVESGGGLVQAGGSLRLSCAASGSTFTVNAMGWYRQAPGKERELVAAIRWSGDSTYYADSVKGRFTISRDNAKNTVYLQMNSLKPEDTAVYYCARDLYWGSYNYWGQGTQVTVSS | low polyreactivity
QVQLVESGGGLVQAGGSLRLSCAASGSTFTYNAMGWYRPAPGKERELVAAISYGGGRTYYADSVKGRFTISRDNAKNTVYLQMNSLKPEDTAVYYCAAGRSIGALYYGMDYWGQGTQVTVSS | high polyreactivity
QVQLVESGGGLVQAGGSLRLSCAASGSTFTYNAMGWYRQAPGKERELVAAIDRSVSTNYADSVKGRFTISRDNAKNTVYLQMNSLKPEDTAVYYCNARHPTDDIVIYDYWGQGTQVTVSS | low polyreactivity
QVQLVESGGGLVQAGGSLRLSCAASGSTFTYNAMGWYRQAPGKERELVAAISWSGGRTYYADSVKGRFTISRDNATNTVYLQMNSLKPEDTAVYSCAAKYRYSTYSFPYDYWGQGTQVTVSS | high polyreactivity
QVQLVESGGGLVQAGGSLRLSCAASGSTFTYYAMGWYRQAPGKERELVADISWDGGSTYYADSVKGRFTFSRDNAKNTVYLQMNSLKPEDTAVYYCATDLVYKYDYWGQGTQVTVSS | low polyreactivity
QVQLVESGGGLVQAGGSLRLSCAASGSTFTYYAMGWYRQAPGKERELVASITTSGGDTNYADSVKGRFTISRDNAKNTVYLQMNSLKPEDTAVYYCAADLYDPYHVYGYNYWGQGTQVTVSS | low polyreactivity
QVQLVESGGGLVQAGGSLRLSCAASGSTFVDNAMGWYRQAPGKERELVAAINSTDITNYADSVKGRFTISRDNAKNTVYLQMNSLKPEDTAVYYCAKDLLKWRKYQWYYYWGQGTQVTVSS | low polyreactivity
QVQLVESGGGLVQAGGSLRLSCAASGSTFVDNAMGWYRQAPGKERELVAAISSSGGTTYYADSVKGRFTISRDNAKNTVYLQMNSLKPEDTAVYYCAARRRSGTYWRSANDYWGQGTQVTVSS | high polyreactivity
QVQLVESGGGLVQAGGSLRLSCAASGSTFVDNAMGWYRQAPGKERELVAAISTRGGTTYYADSVKGRFTISRDNAKNTVYLQMNSLKPEDTAVYYCAADYYDSGWYGYWGQGTQVTVSS | high polyreactivity
QVQLVESGGGLVQAGGSLRLSCAASGSTFVDNAMGWYRQAPGKERELVADITWSGGSTYYADSVKGRFTISRDNAKNTVYLQMNSLKPEDTAVYYCAKVPKSRGYVGGMDYWGQGTQVTVSS | low polyreactivity
QVQLVESGGGLVQAGGSLRLSCAASGSTFVDNAMGWYRQAPGKEREMVAAIRYGSGGSTRYADSVKGRFTISRDNAKNTVYLQMNSLKPEDTAVYYCAADGYITVNYLRYDYWGQGTQVTVSS | low polyreactivity
QVQLVESGGGLVQAGGSLRLSCAASGSTFVDNLMGWYRQSPGKERELVAAIDFSTGSTYYADSVKGRFTISRDNAKNTVYLQMNSLKPDDTAVYYCNAKYYSWDWSSFNYWGQGTQVTVSS | low polyreactivity
QVQLVESGGGLVQAGGSLRLSCAASGSTFVDYAMGWYRQAPGKERELVAAINRSGGRTYYADSVKGRFTISRDNAKNTVYLQMNSLKPEDTAVYYCAAKNPQPDEHGYWGQGTQVTVSS | high polyreactivity
QVQLVESGGGLVQAGGSLRLSCAASGSTFVFYAMGWYRQAPGKERELVAAISRSGGSTYYADSVKGRFTISRDNAKNTVYLQMNSLKPEDTAVYYCNAVRFYRYGWGQGTQVTVSS | high polyreactivity
QVQLVESGGGLVQAGGSLRLSCAASGSTFVFYAMGWYRQAPGKERELVATISSGGSTYADSVKGRFTISRDNAKNTVYLQMYSLKPEDTAVYYCAADSLFGHYDYWGQGTQVTVSS | low polyreactivity
QVQLVESGGGLVQAGGSLRLSCAASGSTFVGNAMGWYRQAPGKERELVAAISRGGGRTYYADSVKGRFTISRDNAKNTVYLQMNSLKPEDTAVYYCNADVYHRAWHLDYWGQGTQVTVSS | high polyreactivity
QVQLVESGGGLVQAGGSLRLSCAASGSTFVGYAMGWYRPAPGKDRELFAAITRGGGSTYYADSVKWRFTISRDNAKNTVYLQINSLKPEDTAVYYCAAYQHPGLRTSYEYWGQGTQVTVSS | low polyreactivity
